{"source": "paper PMC5093408", "key": {"[1]": {"molecular_target": "HUSpm Asn92Lys mutant (Spiroplasma melliferum KC3)", "assay": "SEC; size-exclusion chromatography of the purified point mutants; conditions not given"}, "[2]": {"molecular_target": "HUSpm Lys35Thr mutant (Spiroplasma melliferum KC3)", "assay": "SEC; size-exclusion chromatography of the purified point mutants; conditions not given"}, "[3]": {"molecular_target": "histone-like HU protein from Spiroplasma melliferum KC3 (Spiroplasma melliferum KC3)", "assay": "crystal structure; hanging-drop vapour diffusion at 4 °C; protein 14 mg/ml in 20 mM Tris HCl pH 8.0, 200 mM NaCl, 5% glycerol; reservoir 0.1 M Tris HCl pH 8.0, 35% v/v PEG 400, 5% glycerol; one monomer per asymmetric unit, dimer by a crystallographic twofold axis; 1.4 Å"}, "[4]": {"molecular_target": "HUSpm Phe29Ala mutant (Spiroplasma melliferum KC3)", "assay": "SEC; size-exclusion chromatography of the purified point mutants; conditions not given"}, "[5]": {"molecular_target": "HUSpm Phe14Ala mutant (Spiroplasma melliferum KC3)", "assay": "SEC; size-exclusion chromatography of the purified point mutants; conditions not given"}, "[6]": {"molecular_target": "HUSpm Val17Thr mutant (Spiroplasma melliferum KC3)", "assay": "SEC; size-exclusion chromatography of the purified point mutants; conditions not given"}}}
{"substance": "HUSpm Asn92Lys mutant (natural protein)", "values": [{"measurement": "stoichiometry N", "setting": "[1]", "result": 2}]}
{"substance": "HUSpm Lys35Thr mutant (natural protein)", "values": [{"measurement": "stoichiometry N", "setting": "[2]", "result": 2}]}
{"substance": "histone-like HU protein from Spiroplasma melliferum KC3 (natural protein)", "values": [{"measurement": "stoichiometry N", "setting": "[3]", "result": 2}]}
{"substance": "HUSpm Phe29Ala mutant (natural protein)", "values": [{"measurement": "stoichiometry N", "setting": "[4]", "result": 2}]}
{"substance": "HUSpm Phe14Ala mutant (natural protein)", "values": [{"measurement": "stoichiometry N", "setting": "[5]", "result": 2}]}
{"substance": "HUSpm Val17Thr mutant (natural protein)", "values": [{"measurement": "stoichiometry N", "setting": "[6]", "result": 2}]}
